This data set is described as follows: yeast display, Sf9 membrane polyspecificity reagent, FACS + sequencing; frameworks hold sequencing errors. In a few lines: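 Polyreactivity labels are assigned by the sorting gate from which each nanobody was recovered. The gates were low and high (top ~1%), set on anti-HA fluorescence for expression and streptavidin fluorescence for reagent binding. Before sorting, galactose-induced (36–48 hours) yeast display cells were stained for 1 hour at 4 °C with 10% biotinylated, detergent-solubilized Sf9 membrane reagent.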
As for “QVQLVESGGGLVQAGGSLRLSCAASGSIFYWYAMGWYRQAPGKERELVAAISGSGGTTYYADSVKGRFTISRDNAKNTVYLQMNSLKPEDTAVYYCATRGWYLGSRGYRTRYGYWGQGTQVTVSS”, the “polyreactivity (PSR sort gate)” value is “high polyreactivity”.
With “QVQLVESGGGLVQAGGSLRLSCAASGSIFYWYAMGWYRQAPGKERELVAAISSGGSTNYADSVKGRFTISRDNAKNTVYLQMNSLKPEDTSVYYCNADIRSFYCEYYTGLDSWGQGTQVTVSS”, the “polyreactivity (PSR sort gate)” value was “low polyreactivity”.
For the sequence “QVQLVESGGGLVQAGGSLRLSCAASGSIFYWYAMGWYRQAPGKERELVAAITYSGDRTYYADSVKGRFTISRDNAKNTVYLQMNSLKPEDTAVYYCAKDRGSGPLDYWGQGTQVTVSS”, the “polyreactivity (PSR sort gate)” value is recorded as “low polyreactivity”.
“QVQLVESGGGLVQAGGSLRLSCAASGSIFYYFALGWYRQAPGTERELVAAISRSGGRTYYADSVKGRFTISRDNAKNPVYLHMNSLKPEDTAFYYCNTDGYYTTAKYGYWGQGTQVTVSS”: the “polyreactivity (PSR sort gate)” value is listed as “high polyreactivity”.
“QVQLVESGGGLVQAGGSLRLSCAASGSIFYYNAKGWYTQAPGKERELVAVISYRSGRTSDADSVKGRFTISRDNAKNTVYLQMNSLKPEDTAVYYCATRDWWRYRHTGVIKFDYWGQGTQVSVSS”: the “polyreactivity (PSR sort gate)” value is “high polyreactivity”.
Consider “QVQLVESGGGLVQAGGSLRLSCAASGSIFYYNALGWYRQAPGKERELVAVISYRSGRTSYADSVKGRFTISRDNAKNTVYLQMNSLKPEDTAVYYCNAKPAVSFSRHYYRYDYWGQGTQVTVSS”, for which the “polyreactivity (PSR sort gate)” value is reported as “high polyreactivity”.
For the sequence “QVQLVESGGGLVQAGGSLRLSCAASGSIFYYNAMGWYRQAPGKERELVAAISSDGGTYYADSVKGRFTISRDNAKNTVYLQMNSLKPEDTAVYYCNAEVFWWDQWYDYWGQGTQVTVSS”, the “polyreactivity (PSR sort gate)” value is “high polyreactivity”.
Under “QVQLVESGGGLVQAGGSLRLSCAASGSIFYYNAMGWYRQAPGKERELVAVISYRSGRTSYADSVKGRFTISRDNAKNTVYLQMNSLKPEDTAVYYCIAKPAVSFSRHYYRYDYWGQGTQVTVSS” stands “high polyreactivity”.
For the sequence “QVQLVESGGGLVQAGGSLRLSCAASGSIFYYNTMGWYRQAPGKAREFVADISVNGGSTYYADSVKGRFTISRDNAKNTVYLQMNSLKPEDSAVYYCAARRYQRPHGLYGYWGQGTQVTVSS”, the “polyreactivity (PSR sort gate)” value was “low polyreactivity”.
For “QVQLVESGGGLVQAGGSLRLSCAASGSIFYYYAIGWYRKAPGKEREFVATIRRSGASTYYADSVKGRFTISRDNAKNTVYLQMNSLKPEDTAVYYCNAASARRPIYEAARWSKYDYWGQGTQVTVSS”, the “polyreactivity (PSR sort gate)” value was “low polyreactivity”.
Under “QVQLVESGGGLVQAGGSLRLSCAASGSIFYYYAMARYRPAPGKERELVASITSSGGTTSYADSVKGRFRISRDNAKNTVYLQMISLKPEDTAVYYCNAQVYRYRIGYDYWGQGTQVTVSS” stands “low polyreactivity”; under “QVQLVESGGGLVQAGGSLRLSCAASGSIFYYYAMGWYRQAPGKERELVAAITSGGSTYYADSVKGRFTISRDNAKNTVYYQMNSLIPEDTAVYYCAAVFYAAYLRYVWYSYDYWGQGTQVTVSS”, “low polyreactivity”; under “QVQLVESGGGLVQAGGSLRLSCAASGSIFYYYAMGWYRQAPGKERELVAAITYRGTRTYYADSVKGRFTISRDNAKNTVYLLMNSLKPEDTAVYYCAAERRIYSSDSWGQGTQVTVSS”, “high polyreactivity”.
For the sequence “QVQLVESGGGLVQAGGSLRLSCAASGSIFYYYAMGWYRQAPGKERELVASISSSGSTNYADSVKGRFTISRDNAKNTVYLLMKRLKPEDTAVYYCYADLSLGSYYSYYAYNSWGQGTQVTVSS”, the “polyreactivity (PSR sort gate)” value is on record as “low polyreactivity”.
“QVQLVESGGGLVQAGGSLRLSCAASGSIFYYYSMGWYRQAPGKERELVATISSTTSTYADSVKGRFTISRDNAKNTVYLQMNSLKPEDTAVYYCSYDYWGQGTQVTVSS”: the “polyreactivity (PSR sort gate)” value is given as “low polyreactivity”.
For the sequence “QVQLVESGGGLVQAGGSLRLSCAASGSIGVNAMGWYRQAPGKERELVATISNSGGSTYYADSVKGRFTISRDNAKNTVYLQINSLKPEDTAVYYCAVAVTSYSSKKLYYWGQGTQVTVSS”, the “polyreactivity (PSR sort gate)” value was “low polyreactivity”.
With “QVQLVESGGGLVQAGGSLRLSCAASGSIGYYAMGWYRQAPGKERELVAAIDWSGGDTYYADSVKGRFTISRDNAKNTVYLQMNSLKPEDTAVYYCAKRLYLKTCAASSADDYWGQGTQVTVSS”, the “polyreactivity (PSR sort gate)” value is reported as “low polyreactivity”.
On to “QVQLVESGGGLVQAGGSLRLSCAASGSIIASNAMGWYRHAPWKERELVAAITNGGRTNYADSVKGRFTISRDNAKNTVYLQMNSMKPEDTAVYYCDALWSRCAGFEYCGQGTQVTVSS”, for which the “polyreactivity (PSR sort gate)” value is listed as “high polyreactivity”.
“QVQLVESGGGLVQAGGSLRLSCAASGSIIGGYAMGWYRQAPGKERELVAAITRSGGRTYYADSVKGRFTISRDNAKNTVYLQMNSLKPEDTAVYYCNADRRRRFGYWGQGTQVTVSS”: the “polyreactivity (PSR sort gate)” value is given as “high polyreactivity”.
Turning to “QVQLVESGGGLVQAGGSLRLSCAASGSIIGRNAMGWYRQAPGKERELVAAISTRGGRTYYADSVKGRFTISRDNAKNTVYLQMNSLKPEDTAVYYCADTYQYLKSGYYWGQGTQVTVSS”, the “polyreactivity (PSR sort gate)” value is reported as “high polyreactivity”.
Regarding “QVQLVESGGGLVQAGGSLRLSCAASGSIIGRYAMGWYRQAPAKERELVATITFRDTSTYYADSVKGRFTISRDNAKNTVYLQMNSLKTEDTAVYYCAAVRADLWDIARYDYWGQGTQVTVSS”, the “polyreactivity (PSR sort gate)” value is “low polyreactivity”.
Under “QVQLVESGGGLVQAGGSLRLSCAASGSIIGTYAMGWYRQAPGKERELVAAISSSGGRTYYADSVKGRFTISRDNAKNTVYLQMNSLKPEDTAVYYCNTRPGTVFRAGGDYWGQGTQVTVSS” stands “high polyreactivity”; under “QVQLVESGGGLVQAGGSLRLSCAASGSIIHRNAMGWYRQAPGKERELVATITSNGGSTYYADSVKGRFTISRDNAKNTVYLQMNSLKPEETAVYYCARKYRSPISALLTGDYWGQGTQVTVSS”, “low polyreactivity”.
With “QVQLVESGGGLVQAGGSLRLSCAASGSIIKWNAMGWDRKAPGQEREFVASITRSGGSTYYADSVKGRITISRDNAKNTVYLQMNSRKPEDTAVFYCARSYGWYRWAGYDYWGKGTQVTVSS”, the “polyreactivity (PSR sort gate)” value was “high polyreactivity”.
Take “QVQLVESGGGLVQAGGSLRLSCAASGSIIPLYAMGWYRQPPGKERELVAAITSNGGRTYYADSVKGRFTISRDNAKNTVYLQMNSLKPEDTAVYYCNKYLLDYRRGRSDYWGQGTQVTVSS”: the “polyreactivity (PSR sort gate)” value is given as “low polyreactivity”.
As for “QVQLVESGGGLVQAGGSLRLSCAASGSIIQYYAMGWYRQAPGKERELVASITWSGGSTYYADSVKGRFTISRDNAKNTVFLQMNSLKPEDTAVYYCAKRLYLKTWAASTADDYWGQGTQVTVSS”, the “polyreactivity (PSR sort gate)” value is listed as “low polyreactivity”.
For “QVQLVESGGGLVQAGGSLRLSCAASGSIIRRNVMGWYRQAPGKERELVAASSWSGDRTYYADSVKGRFTISRDNAKNTVYLQMNSLKPEDTAVYYCAAANASPRRYGQYDYWGQGTQVTVSS”, the “polyreactivity (PSR sort gate)” value was “high polyreactivity”.
“QVQLVESGGGLVQAGGSLRLSCAASGSIIRYNAMGWYRQAPGKERELVAAITKGAGSTYYADSVKGRFTISRDNAKNTVYLQMNSLKPEDTAVYYWNKARGSGHTYYSWGLGTQVTVSS”: the “polyreactivity (PSR sort gate)” value is “high polyreactivity”.
Regarding “QVQLVESGGGLVQAGGSLRLSCAASGSIISYYAMGWYRQAPGKERELVAAITASGGSTYYADSVKGRFTISRDNAKNTVYLQMNSLKPEDTAVYYCAAGTHTDYGRYYYWGQGTQVTVSS”, the “polyreactivity (PSR sort gate)” value is recorded as “low polyreactivity”.
Take “QVQLVESGGGLVQAGGSLRLSCAASGSIITPNAMGWYRQAPGQERELVAAISSGGSTNYADSVKGRITISRDNAKNTVYFQLTCLKPEDTAVYYCAKSIDGWYWRRRRYDYWGQGTQVTVSS”: the “polyreactivity (PSR sort gate)” value was “low polyreactivity”.
In the case of “QVQLVESGGGLVQAGGSLRLSCAASGSIITRNAMGWYRQAPGKERELVATIRYRGGSTYYADSVKGRFTISRDNAKNTVFLQMNSLKPEDTAVYYCAARRSHPPDPRFRYGYWGQGTQVTVSS”, the “polyreactivity (PSR sort gate)” value was “high polyreactivity”.
With “QVQLVESGGGLVQAGGSLRLSCAASGSIITWNAMGWYRQAPGKERELVAAIDWDGGSTYYADSVKGRFTISRDNAKNTVYLQMNSLKPEDTAVYYCAATYGWYTGRYPSGHYYYWGQGTQVTVSS” the entry was “low polyreactivity”; with “QVQLVESGGGLVQAGGSLRLSCAASGSIITYYAMGWYRQAPGKDSELVAVISASGGRTYYADSVKGRFTISRDNAKNTVYLQMISLKPEDTAVYYCAAYQSIYSFKFGYWGQGTQVTVSS”, “high polyreactivity”; with “QVQLVESGGGLVQAGGSLRLSCAASGSIIVRYAMGWDRQAPGKERELVAAISKSGGSTHYADSVKGRFTISRDNAKNTVYLQMNSLKPEDTAVYYCAAVYYYRFTTYYYWGQGTQVTVSS”, “high polyreactivity”.
“QVQLVESGGGLVQAGGSLRLSCAASGSIIVRYAMGWYRQAPGKERELVATITFRDTSTYYADSVKGRFTISRDNAKNTVYLQMNSLKPEDTAVYYCAAVRADLWDIARYDYWGQGTQVTVSS”: the “polyreactivity (PSR sort gate)” value is reported as “low polyreactivity”.
Turning to “QVQLVESGGGLVQAGGSLRLSCAASGSIIVTYAMGWYRQAPGKERELVATISGGGSTTYADSVKGRFTISRDNAKNTVYLQMNSLKPEDTAVYYCATDARYTSHRTAGYDYWGQGTQVTVSS”, the “polyreactivity (PSR sort gate)” value is “low polyreactivity”.
For the sequence “QVQLVESGGGLVQAGGSLRLSCAASGSIIVYYAMGWYRQAPGKERELVAAIRVRGGSTYYADSVKGRFTISRDTAKNTVYLQMNSLKPEDTAVYYCATAGRYGRYRTNAYRSKYDYWGQGTQVTVSS”, the “polyreactivity (PSR sort gate)” value is “high polyreactivity”.
For “QVQLVESGGGLVQAGGSLRLSCAASGSIIWLYAMGWYRQAPGKERELVAAISSGGSTYYADSVKGRFTISRDNAKNTVYLQMNSLKPEDTAVYYCNVDYWQPWQYDYWGQGTQVTVSS”, the “polyreactivity (PSR sort gate)” value is “high polyreactivity”.
As to “QVQLVESGGGLVQAGGSLRLSCAASGSIIYHYAWGWYRQAPGQERELVDAITRCGGSTYYADSVKGRFTISRDNAKNTVYLQMHSLKPEDTAVYYCAREAGRYAYKYYWWQRTDYDYGGQGTQVTVSS”, the “polyreactivity (PSR sort gate)” value is “low polyreactivity”.
Regarding “QVQLVESGGGLVQAGGSLRLSCAASGSIIYLYTMGWYRQAPGKERELVAAISSSGSSTYYADSVKGRFTISRDNAKNTVYLQMNSLKPEYTSVYYCAARYSYDSYYWGKGTQVTVSS”, the “polyreactivity (PSR sort gate)” value is on record as “high polyreactivity”.

The values above are taken from the nanobody polyreactivity screen of Harvey et al. (2022).
